Experiments:
[1] = molecular target: human IL-2 (recombinant IL-2, Humanzyme) (human) (UniProt P60568); assay: SPR (Biacore T200), antibody captured on anti-mouse IgG, IL-2 injected; off-rate outside the specifications of the instrument, assumed limit
[2] = molecular target: human IL-2 (recombinant IL-2, Humanzyme) (human) (UniProt P60568); assay: SPR (Biacore T200), antibody captured on anti-mouse IgG, IL-2 injected, 25 C, 1:1 Langmuir fit
[3] = molecular target: recombinant cynomolgus monkey (Macaca fascicularis) IL-2 (cynomolgus monkey (Macaca fascicularis)) (UniProt Q29615); assay: SPR as in Example 1, cynomolgus IL-2 1-100 nM, 1:1 Langmuir or steady-state fit
Sequence of recombinant cynomolgus monkey (Macaca fascicularis) IL-2 (cynomolgus monkey (Macaca fascicularis)) (Q29615 21-154 limits assumed): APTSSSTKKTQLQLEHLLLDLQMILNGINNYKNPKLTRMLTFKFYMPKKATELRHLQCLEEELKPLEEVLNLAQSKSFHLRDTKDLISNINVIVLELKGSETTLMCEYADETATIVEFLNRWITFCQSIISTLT

[4] = molecular target: human IL-2 (recombinant IL-2, Humanzyme) (human) (UniProt P60568); assay: SPR, human IL-2; the value repeats Table 3 (assumed off-rate limit)
[5] = molecular target: human IL-2 (recombinant IL-2, Humanzyme) (human) (UniProt P60568); assay: SPR (Biacore T200), antibody captured on anti-mouse IgG, IL-2 injected; calculated with the assumed off-rate limit
IL-2/F5.1.11 Fab complex = molecular target: T1, IL-2/F5.1.11 Fab complex (human, UniProt P60568 21-153); assay: SPR (Biacore T200), 1-500 nM IL-2 pre-complexed with excess Fab over biotinylated IL-2Rα, equilibrium analysis
T1 construct: also called F5.1.11/IL-2
T1 sequence (VH, as listed by the source limits assumed, chain 1 of 3): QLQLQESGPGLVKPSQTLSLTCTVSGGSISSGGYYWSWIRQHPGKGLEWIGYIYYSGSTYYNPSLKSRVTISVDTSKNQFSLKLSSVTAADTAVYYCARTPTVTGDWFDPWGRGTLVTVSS
T1 sequence (VL, as listed by the source limits assumed, chain 2 of 3): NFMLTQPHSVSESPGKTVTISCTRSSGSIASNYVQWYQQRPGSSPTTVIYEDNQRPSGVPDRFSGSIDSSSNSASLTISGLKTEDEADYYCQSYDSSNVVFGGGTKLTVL
T1 sequence (P60568 21-153 limits assumed, chain 3 of 3): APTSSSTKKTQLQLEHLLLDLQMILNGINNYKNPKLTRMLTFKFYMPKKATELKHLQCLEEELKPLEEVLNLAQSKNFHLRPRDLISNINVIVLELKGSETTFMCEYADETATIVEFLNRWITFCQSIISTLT
Protocol: Experiments were performed at 25° C. using a 10 μL/minute flow rate in 10 mM HEPES (pH7.4), 150 mM NaCl and 0.005% v/v Surfactant P20 buffer. […] Data was background subtracted using the adjacent control flow cell and buffer only injections. The affinity of the interaction was calculated from concentration-response relationship at equilibrium.

d1C7/IL-2 complex = molecular target: T2, d1C7/IL-2 complex (human, UniProt P60568 21-153); assay: SPR (Biacore T200), complex injected over biotinylated receptor on streptavidin chip
T2 construct: Non-covalent complex: IL-2 (333 nM) pre-incubated with d1C7 IgG (1000 nM) for at least 20 minutes; also called clone d1C7/IL-2 complex
T2 sequence (VH, as listed by the source limits assumed, chain 1 of 3): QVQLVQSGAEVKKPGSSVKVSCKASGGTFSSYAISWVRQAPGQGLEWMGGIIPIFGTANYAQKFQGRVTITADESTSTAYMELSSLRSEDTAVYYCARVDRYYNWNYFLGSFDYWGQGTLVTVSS
T2 sequence (VL, as listed by the source limits assumed, chain 2 of 3): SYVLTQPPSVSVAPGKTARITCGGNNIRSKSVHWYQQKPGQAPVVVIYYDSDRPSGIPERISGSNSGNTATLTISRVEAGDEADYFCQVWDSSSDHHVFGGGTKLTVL
T2 sequence (P60568 21-153 limits assumed, chain 3 of 3): as the sequence (P60568 21-153 limits assumed, chain 3 of 3) above
Protocol: Experiments were performed at 25° C. using a 10 μL/minute flow rate in 10 mM HEPES (pH 7.4), 150 mM NaCl and 0.005% v/v Surfactant P20 buffer. […] Data was background subtracted using the adjacent control flow cell and buffer only injections.

Sequence of human IL-2 (recombinant IL-2, Humanzyme) (human) (P60568 21-153 limits assumed): as the sequence (P60568 21-153 limits assumed, chain 3 of 3) above

mouse anti-human IL-2 clone 5344 (clone 5344.111, BD Biosciences) (antibody)
koff [1]: < 5e-05 s⁻¹ | kon [2]: 1.02e+06 M⁻¹ s⁻¹ | Kd [3]: > 50 nM | Kd [4]: < 0.05 nM | Kd [5]: < 0.05 nM

B1: recombinant IL-2Rα, biotin labeled (receptor, UniProt P01589 22-240, looked up)
chain: ELCDDDPPEIPHATFKAMAYKEGTMLNCECKRGFRRIKSGSLYMLCTGNSSHSSWDNQCQCTSSATRNTTKQVTPQPEEQKERKTTEMQSPMQPVDQASLPGHCREPPPWENEATERIYHFVVGQMVYYQCVQGYRALHRGPAESVCKMTHGKTRWTQPQLICTGEMETSQFPGEEKPQASPEGRPESETSCLVTTTDFQIQTEMAATMETSIFTTEYQ
modifications: biotin labeled (site not stated)
notes: also called IL-2α; IL-2a
Kd (IL-2/F5.1.11 Fab complex): 70.1 nM

B2: recombinant IL-2Rβ, biotin labeled (receptor, UniProt P14784 27-240, looked up)
chain: AVNGTSQFTCFYNSRANISCVWSQDGALQDTSCQVHAWPDRRRWNQTCELLPVSQASWACNLILGAPDSQKLTTVDIVTLRVLCREGVRWRVMAIQDFKPFENLRLMAPISLQVVHVETHRCNISWEISQASHYFERHLEFEARTLSPGHTWEEAPLLTLKQKQEWICLETLTPDTQYEFQVRVKPLQGEFTTWSPWSQPLAFRTKPAALGKDT
modifications: biotin labeled (site not stated)
notes: also called CD122
binding result (d1C7/IL-2 complex): no binding (tested: IL-2 333 nM with IgG 1000 nM)
